Laboratory results taken from IntAct's records for PubMed 24056087.

B1: ADP-ribosylation factor 6 (Homo sapiens), P62330 (parent)
chain: MGKVLSKIFGNKEMRILMLGLDAAGKTTILYKLKLGQSVTTIPTVGFNVETVTYKNVKFNVWDVGGQDKIRPLWRHYYTGTQGLIFVVDCADRDRIDEARQELHRIINDREMRDAIILIFANKQDLPDAMKPHEIQEKLGLTRIRDRNWYVQPSCATSGDGLYEGLTWLTSNYKS
partner: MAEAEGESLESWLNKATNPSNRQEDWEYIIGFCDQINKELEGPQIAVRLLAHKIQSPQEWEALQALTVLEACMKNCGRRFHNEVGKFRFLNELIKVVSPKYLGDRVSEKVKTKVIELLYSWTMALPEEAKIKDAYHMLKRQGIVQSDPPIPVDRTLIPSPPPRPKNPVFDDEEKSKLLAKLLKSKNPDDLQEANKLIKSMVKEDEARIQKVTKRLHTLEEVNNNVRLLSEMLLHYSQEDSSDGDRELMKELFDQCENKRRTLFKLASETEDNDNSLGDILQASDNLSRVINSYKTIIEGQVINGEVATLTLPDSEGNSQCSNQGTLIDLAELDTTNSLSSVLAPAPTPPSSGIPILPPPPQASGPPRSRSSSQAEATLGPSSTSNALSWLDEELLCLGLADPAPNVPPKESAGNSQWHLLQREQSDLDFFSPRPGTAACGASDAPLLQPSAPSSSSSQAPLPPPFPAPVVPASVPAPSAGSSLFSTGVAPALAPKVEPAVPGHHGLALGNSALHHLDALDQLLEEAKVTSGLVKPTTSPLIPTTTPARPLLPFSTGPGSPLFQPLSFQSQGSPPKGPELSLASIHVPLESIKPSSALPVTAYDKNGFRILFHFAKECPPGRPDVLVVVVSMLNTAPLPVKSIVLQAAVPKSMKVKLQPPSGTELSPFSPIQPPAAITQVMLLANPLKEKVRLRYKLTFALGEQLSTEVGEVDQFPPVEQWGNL
B2: ADP-ribosylation factor 6 (Homo sapiens), P62330 (parent)
chain: B1 chain
partner: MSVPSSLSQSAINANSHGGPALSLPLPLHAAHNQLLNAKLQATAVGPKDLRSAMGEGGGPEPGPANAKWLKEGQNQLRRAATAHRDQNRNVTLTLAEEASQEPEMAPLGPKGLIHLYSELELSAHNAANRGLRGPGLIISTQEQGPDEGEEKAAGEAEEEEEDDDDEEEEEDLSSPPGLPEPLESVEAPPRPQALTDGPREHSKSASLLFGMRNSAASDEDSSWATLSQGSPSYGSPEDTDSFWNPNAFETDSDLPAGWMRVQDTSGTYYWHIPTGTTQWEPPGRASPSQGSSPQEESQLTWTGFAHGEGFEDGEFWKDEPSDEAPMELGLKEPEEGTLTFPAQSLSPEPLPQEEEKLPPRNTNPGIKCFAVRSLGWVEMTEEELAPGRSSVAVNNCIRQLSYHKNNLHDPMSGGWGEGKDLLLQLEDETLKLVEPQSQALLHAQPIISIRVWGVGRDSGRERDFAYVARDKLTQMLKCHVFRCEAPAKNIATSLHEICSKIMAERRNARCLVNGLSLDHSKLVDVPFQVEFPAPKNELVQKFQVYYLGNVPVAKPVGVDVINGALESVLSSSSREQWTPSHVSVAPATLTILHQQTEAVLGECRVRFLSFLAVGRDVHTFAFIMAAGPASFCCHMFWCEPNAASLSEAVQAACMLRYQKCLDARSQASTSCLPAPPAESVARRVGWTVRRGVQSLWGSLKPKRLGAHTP

Variants of: B1
Settings: with gga3_human GGA3, Q9NZ52

| Variant | effect of a mutation on the interaction |
| --- | --- |
| Q67L | increasing interaction strength |
| T27N | decreasing interaction strength |

Variants of: B2
Settings: with apbb1_human APBB1, O00213

| Variant | effect of a mutation on the interaction |
| --- | --- |
| Q67L | disrupting interaction strength |
| T27N | increasing interaction strength |
